Source: patent US20140155466

Experiments:
Assay in all cases: cell_activity
[1] = system: Human autoantibodies against endothelin receptor type A (ETA-AAB) (Homo sapiens); conditions: pulmonary hypertension patient 2, -4.8 without aptamer
[2] = system: Human autoantibodies against PAR receptor (PAR-receptor AAB) (Homo sapiens); conditions: Raynaud patient 1, 7.33 without aptamer; 100 nM
[3] = system: Human autoantibodies against angiotensin II AT1 receptor (AT1-receptor AAB) (Homo sapiens); conditions: malignant hypertension, 7.83 without aptamer; kidney transplant 6.17 to 0.17; 100 nM
[4] = system: Human autoantibodies against beta2-adrenergic receptor (beta2-receptor AAB) (Homo sapiens); conditions: 100 nM
[5] = system: Human autoantibodies against beta1-adrenergic receptor (beta1-receptor AAB, 2nd loop) (Homo sapiens)
[6] = system: Human autoantibodies against beta1-adrenergic receptor (beta1-receptor AAB, 1st loop) (Homo sapiens); conditions: DCM patient 1, 6.33 without aptamer; 100 nM
[7] = system: Human autoantibodies against muscarinic M2 receptor (M2-receptor AAB) (Homo sapiens); conditions: -3.67 without aptamer, 100 nM
[8] = system: Human alpha1/beta2-receptor autoantibodies (Alzheimer patient) (Homo sapiens); conditions: Alzheimer patient 1, 8.0 without aptamer; 100 nM
[9] = system: Human autoantibodies against alpha1-adrenergic receptor (alpha1-receptor AAB) (Homo sapiens); conditions: pulmonary hypertension patient 2, 5.17 without aptamer; 100 nM

Sequence: GGTTGGTGTGGTTGG [thrombin-aptamer ARC183]
- activity (delta beats/15 sec) ([1]; 100 nM): 0.33
- activity (delta beats/15 sec) [2]: 0.17
- activity (delta beats/15 sec) [3]: 0.67
- activity (delta beats/15 sec) ([4]; glaucoma patient 1, 7.33 without aptamer): 0.33
- activity (delta beats/15 sec) ([5]; DCM patient 1, 5.33 without aptamer, 100 nM aptamer, rat cardiomyocyte bioassay): 0.17
- activity (delta beats/15 sec) [6]: -0.17
- activity (delta beats/15 sec) ([7]; Chagas cardiomyopathy): 0.5
- activity (delta beats/15 sec) [8]: 0
- activity (delta beats/15 sec) [9]: 0.33

Sequence: GGTTGGTGTGGTTGG [3'-dT cap thrombin-aptamer]
- activity (delta beats/15 sec) ([4]; 3'-dT cap, Alzheimer, 5.17 without aptamer): 0
- activity (delta beats/15 sec) ([5]; 3'-dT cap, DCM, 6.0 without aptamer, 100 nM): 0

Sequence: GGTTGGTGTGGTTGG [5'-FITC-thrombin-aptamer]
- activity (% neutralization) ([5]; loop not stated, 100 nM FITC-aptamer): 50

Sequence: CGCCTAGGTTGGGTAGGGTGGTGGCG [NU172 (ARC2172)]
- activity (delta beats/15 sec) ([1]; sign as printed): 2
- activity (delta beats/15 sec) ([4]; glaucoma patient 1, 7.33 without aptamer, Chagas megacolon patient 6.17 to 2.0): 5.33
- activity (delta beats/15 sec) ([5]; peripartum cardiomyopathy, 6.33 without aptamer, 100 nM, partial): 4
- activity (delta beats/15 sec) ([7]; sign as printed): 3
- activity (delta beats/15 sec) [9]: 2
